# Measurements: paper PMC5741687, “A Novel Role for CSRP1 in a Lebanese Family with Congenital Cardiac Defects” (Frontiers in Genetics, 2017)
# T1: HA-tagged TBX5 (UniProt Q99593 1-518)
# T1 sequence (looked up): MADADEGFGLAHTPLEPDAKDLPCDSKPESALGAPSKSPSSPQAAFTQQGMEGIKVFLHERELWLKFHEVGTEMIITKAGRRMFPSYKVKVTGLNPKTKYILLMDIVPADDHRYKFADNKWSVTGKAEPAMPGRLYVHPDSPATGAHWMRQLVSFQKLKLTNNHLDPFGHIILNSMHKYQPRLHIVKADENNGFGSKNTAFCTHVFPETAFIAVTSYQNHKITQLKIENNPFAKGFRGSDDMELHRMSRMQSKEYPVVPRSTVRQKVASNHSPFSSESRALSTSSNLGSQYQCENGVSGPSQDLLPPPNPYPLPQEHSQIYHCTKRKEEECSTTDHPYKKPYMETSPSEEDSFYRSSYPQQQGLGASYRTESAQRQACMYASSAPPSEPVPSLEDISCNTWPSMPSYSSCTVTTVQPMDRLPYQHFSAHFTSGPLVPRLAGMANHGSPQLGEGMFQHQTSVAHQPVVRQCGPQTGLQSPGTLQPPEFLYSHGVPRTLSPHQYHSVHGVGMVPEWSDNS
# T2: HA-tagged serum response factor (SRF) (UniProt P11831 1-508)
# T2 sequence (looked up): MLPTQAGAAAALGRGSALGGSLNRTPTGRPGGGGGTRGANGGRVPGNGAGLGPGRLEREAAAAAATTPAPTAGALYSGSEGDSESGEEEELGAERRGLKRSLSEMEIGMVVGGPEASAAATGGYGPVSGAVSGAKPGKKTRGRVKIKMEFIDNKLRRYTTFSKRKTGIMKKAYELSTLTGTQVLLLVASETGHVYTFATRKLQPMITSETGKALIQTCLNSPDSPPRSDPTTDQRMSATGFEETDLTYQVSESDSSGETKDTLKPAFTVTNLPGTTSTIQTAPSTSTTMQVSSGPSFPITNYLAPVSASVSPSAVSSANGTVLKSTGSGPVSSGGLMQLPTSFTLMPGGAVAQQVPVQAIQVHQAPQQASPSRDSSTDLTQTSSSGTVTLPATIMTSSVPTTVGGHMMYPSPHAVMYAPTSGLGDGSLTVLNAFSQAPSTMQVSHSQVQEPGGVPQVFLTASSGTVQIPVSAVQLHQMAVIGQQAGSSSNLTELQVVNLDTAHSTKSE
# What was measured:
# [1] = target: HA-tagged serum response factor (SRF) (UniProt P11831)
# [2] = target: HA-tagged serum response factor (SRF) (UniProt P11831); test: co-IP; nuclear extracts (200 ug protein) of HEK293 cells transiently overexpressing both proteins; anti-HA on Dynabeads Protein G, 2 h at RT, washed three times with PBS; blot with anti-Flag, then stripped and probed with anti-HA
# HA-tagged TBX5 [3] = target: HA-tagged TBX5 (UniProt Q99593); test: as above
# HA-tagged GATA6 = HA-tagged GATA6 (UniProt Q92908); test: as above
# HA-tagged GATA4 [4] = target: HA-tagged GATA4 (UniProt P43694); test: as above
# HA-tagged GATA4 [5] = target: HA-tagged GATA4 (UniProt P43694)
# HA-tagged TBX5 [6] = target: T1, HA-tagged TBX5; test: cell-based or functional assay
# [7] = target: T2, HA-tagged serum response factor (SRF); test: cell-based or functional assay
# HA-tagged GATA4 [8] = target: HA-tagged GATA4 (UniProt P43694 1-442); test: cell-based or functional assay
# HA-tagged GATA4 (UniProt P43694 1-442), sequence (P43694 whole entry): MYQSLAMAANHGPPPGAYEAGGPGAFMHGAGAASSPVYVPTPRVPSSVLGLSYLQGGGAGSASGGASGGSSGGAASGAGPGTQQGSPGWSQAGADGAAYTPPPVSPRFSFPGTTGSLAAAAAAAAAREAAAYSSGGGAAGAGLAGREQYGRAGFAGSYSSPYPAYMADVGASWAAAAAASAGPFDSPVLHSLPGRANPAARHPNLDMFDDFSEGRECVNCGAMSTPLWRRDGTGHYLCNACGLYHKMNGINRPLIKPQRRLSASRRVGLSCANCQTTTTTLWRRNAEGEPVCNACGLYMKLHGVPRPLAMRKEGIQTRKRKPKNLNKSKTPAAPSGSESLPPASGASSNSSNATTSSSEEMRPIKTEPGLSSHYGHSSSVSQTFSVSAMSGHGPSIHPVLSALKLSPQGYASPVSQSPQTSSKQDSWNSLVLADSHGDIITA
# HA-tagged GATA4 (UniProt P43694), sequence (P43694 whole entry): as above
# HA-tagged GATA6, sequence (Q92908 whole entry): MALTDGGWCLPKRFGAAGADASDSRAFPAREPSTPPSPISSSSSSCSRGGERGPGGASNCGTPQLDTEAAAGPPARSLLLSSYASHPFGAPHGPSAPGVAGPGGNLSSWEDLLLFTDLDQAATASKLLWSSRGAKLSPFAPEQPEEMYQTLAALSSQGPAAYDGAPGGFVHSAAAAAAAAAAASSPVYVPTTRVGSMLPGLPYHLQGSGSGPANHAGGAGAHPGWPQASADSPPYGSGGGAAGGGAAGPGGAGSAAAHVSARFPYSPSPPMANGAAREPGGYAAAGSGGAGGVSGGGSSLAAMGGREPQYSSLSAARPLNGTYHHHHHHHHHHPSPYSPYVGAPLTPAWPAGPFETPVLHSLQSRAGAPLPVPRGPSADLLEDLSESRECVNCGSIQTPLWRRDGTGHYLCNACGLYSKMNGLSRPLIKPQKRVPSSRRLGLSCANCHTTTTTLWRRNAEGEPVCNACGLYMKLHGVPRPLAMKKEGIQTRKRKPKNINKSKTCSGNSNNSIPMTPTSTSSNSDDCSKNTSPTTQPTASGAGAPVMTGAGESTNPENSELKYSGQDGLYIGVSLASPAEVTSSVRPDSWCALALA
"percent inhibition of the synergy with SRF over the NPPA-luciferase promoter, co-transfection in HEK293 cells [1]",percent inhibition of the co-precipitation against wild-type CSRP1 [2],percent decrease of the co-precipitation against wild-type CSRP1 (HA-tagged TBX5 [3]),percent increase of the co-precipitation against wild-type CSRP1 (HA-tagged GATA6),percent inhibition of the co-precipitation against wild-type CSRP1 (HA-tagged GATA4 [4]),"synergy on the NPPA, VEGF and NOS3 luciferase promoters, co-transfection assays, fold activation (promoter of the number not told); synergy completely lost (HA-tagged GATA4 [5])","synergistic activation of the NPPA, VEGF and NOS3 luciferase promoters, co-transfection in HEK293 (CSRP1 400 and 600 ng, TBX5 200 and 400 ng); highest value on the NOS3 promoter (HA-tagged TBX5 [6])","synergistic activation of the NOS3-luciferase promoter, co-transfection in HEK293 cells, fold activation [7]","synergistic activation of the NPPA-luciferase promoter, co-transfection in HEK293 cells, fold activation [7]","synergistic activation of the VEGF-luciferase promoter, co-transfection in HEK293 cells, fold activation [7]","synergy on the NPPA, VEGF and NOS3 luciferase promoters, co-transfection assays, fold activation (promoter of the number not told) (HA-tagged GATA4 [8])",Molecule
50%,82%,< 55.3%,15%,< 85%,5 fold,–,–,–,–,–,Flag-tagged p.E154Vfs*99 CSRP1 mutant (from UniProt P21291 1-153) (natural protein)
–,–,–,–,–,–,40 fold,14 fold,100 fold,22.3 fold,22 fold,"Flag-tagged wild type human CSRP1 (natural protein, UniProt P21291 1-193, looked up) MPNWGGGKKCGVCQKTVYFAEEVQCEGNSFHKSCFLCMVCKKNLDSTTVAVHGEEIYCKSCYGKKYGPKGYGYGQGAGTLSTDKGESLGIKHEEAPGHRPTTNPNASKFAQKIGGSERCPRCSQAVYAAEKVIGAGKSWHKACFRCAKCGKGLESTTLADKDGEIYCKGCYAKNFGPKGFGFGQGAGALVHSE"
